# Reference: the DeepSol protein solubility set
# Experiment: soluble on expression in E. coli; label from the status in PepcDB or PDB records
row,Sequence,soluble on expression in E. coli
1,MIKVRVPDFSDKKFSDRWRYCVGTGRLGLALQKEYIETLKYVKENIDFKYIRGHGLLCDDVGIYREDVVGDEVKPFYNFTYIDRIFDSFLEIGIRPFVEIGFMPKKLASGTQTVFYWEGNVTPPKDYEKWSDLVKAVLHHFISRYGIEEVLKWPFEIWNEPNLKEFWKDADEKEYFKLYKVTAKAIKEVNENLKVGGPAICGGADYWIEDFLNFCYEENVPVDFVSRHAYTSKQGEYTPHLIYQEIMPSEYMLNEFKTVREIIKNSHFPNLPFHITEYNTSYSPQNPVHDTPFNAAYIARILSEGGDYVDSFSYWTFSDVFEERDVPRSQFHGGFGLVALNMIPKPTFYTFKFFNAMGEEMLYRDEHMLVTRRDDGSVALIAWNEVMDKTENPDEDYEVEIPVRFRDVFIKRQLIDEEHGNPWGTWIHMGRPRYPSKEQVNTLREVAKPEIMTSQPVANDGYLNLKFKLGKNAVVLYELTERIDESSTYIGLDDSKINGY,soluble
2,MSLTFEEKLSQMYNEIANEISGMIPVEWEKVYTIAYVDDEGGEVVFNYTKPGSEDLNYYSDIPKDCNVSKDIFKNSWFKVYRMFDELRETFKKEDLEPWTSCEFDFTRKGNLKVSFDYIDWIKLGFGPSGKENYYMYKKFGILPDMEYEMEEIRAVEKYVKEEGHHHHHH,soluble
3,MEEKDWEGSPLSENEAGLLCYDDEEYQFGGPAPKLQFRYLSEIGELQLLGDEDDVVISLKDLYGEIAEGKYGCCWENYEVYRYLKGLGYILGRHGVPWTTKYAVNTTPSDEDESLCAAEFFQDRDSVTKLLSDMHICDARPVFDVYLPNSQFKKSSPGEPSFVTCFSG,soluble
4,MSLNKKDVIRTLERIAIYMELKGENPFKISAYRKAALALEQDERTLDEIEDPATLKGIGKGTAEVILDLKETGESSLMHELKESVPAGLIPLLQLPSLGGKKIAKLYQELGVIDLATLKEACEQGNVRELAGFGKKSEEKILAAIAELSNKPERFPIAFVLPIAVEIEAQLKEMDSIHRFSRAGSLRRMRETVKDLDYIISTDDPEAVREQLLQLKHMGKTIASGDTKVSVELEYDYPISVDFRLVKDEAFATTLHHFTGSKEHNVKMRQLAKARGEKISEYGVENTETGDVKTFADESAFFKHFGLTYIPPEAREDQGEVELFKEAHALVTLEDIRADLHMHTTWSDGAHSIEEMAEAARQRGYEYIAITDHSKFLRVANGLSEERLKEQHAKIRELNERYDDFTIFTGIEMDILPDGTLDYEDPILAEVDFVIASIHSSFSQPREKIMDRLKTALVNHHVDLIAHPTGRLIGRREGYDVDVDMLIELAKETNTALELNANPNRLDLNSEALKKAQEQGVVMAINTDSHTKETFSYMEYGVGVARKGLIRPETVINTWPLERFCAFLRRHQPEGHHHHHH,soluble
5,MGSDKIHHHHHHHKKTFDYIFNKTEAITLEQSKLTLSKDITVLSFSDSSMVDRNSSIIKVDSGWIVYSKNSESSILSFTSDGQFSGYIGHRGNGPGEYTSVYDVVVNQKSKVLEVLSDGGIFCYTFGGDFLDKKEVTYPAFSFAIDDRQNYWFYVGNNTTYGDAKMICTDENIANVAYYLHQKSNMLPMVENNFGRNGEWLTFHESLNHDLYTIENGKLDLSYAMDFPNYKLPKKLHELSGMEVIEELQRSNYASIINYLENHDYIFLNVLLNNEGERIPEVYYWIISKNLQEEVIIKIDGGISAESYLFNTQYLSNDNKLYCLGYIWENKDVESFEENLNPSVVALEFNELFSKVR,not soluble
6,MAHHHHHHMLWRKQCACRTPEHPTKGYRSVNDSLQLMEIRRTSTPLNYKLLRAYQFLPYEVPFPPHTFASQQWREGENVEAHYALYQTCLCMYLVSSDMSLTVTNMLPALGIHEHDVHKVSRTLCAARCST,not soluble
7,MATPALLPGVDLAAFAAALAARLRDAGIPVSASGQASLVQALQQLVPRTPAALYWGARLTLVSRVDELATFDAVFASLFGVFGSAEPDGANRPPPPIAGPRTPVAGVGHRAKRRSCAAQAQNLPWDTRSLTMASAGQGGPSRTLPDVLPSRIVARADEPFDQFDPDDLRLLGAWLEATMARWPRRRSMRFESSPHGKRIDLRATMNASRSTGWESVLLARIRPRRRPRRVLLLCDVSRSMQPYAAIYLRLMRAAVLRRAGGHPEVFAFSTSLTRLTSVLSHRSAEMALHRANARVTDRYGGTFIGRSVAALLAPPHGNALRGAVVIIASDGWDSDPPDVLVHALTRVRRRAELLVWLNPRAAHPEFQPRAGSMAAALPYCDLFLPAHSLAGLHQLLLALAGAR,soluble
8,MGSDKIHHHHHHMKINTSMLWEDKAKSEVTYTTYLIEKTPDIKNKNPRPAVIICGGGGFFKVTDREKEPVALYFLNKGFQAITLDYTVGKGSGYPKPLYDLAKMLLIVRENAQNWNIDTEKVIFIGFSAGATHSASLANSWNEPFLQKYFDYPGETLKPSLVILSYPLLDFNYQYEQVSVDPDNQMPTKLSPMPKIDFLTGALKTVVGKELTTENLKEYSPIEHISTATVPTFIWGMQDDDCIYNNALLEYAKRLKDNGILYELHMFALGEHGLSVINSNTQAKFSDYEELGIWKKLCIQFINRVLHLK,not soluble
9,MSRNNEELQGISLLGNQKTQYPTGYAPEILEAFDNKHPDNDYFVKFVCPEFTSLCPMTGQPDFATIYIRYIPHIKMVESKSLKLYLFSFRNHGDFHEDCVNIIMKDLIALMDPKYIEVFGEFTPRGGIAIHPFANYGKAGTEFETLARKRLFEHDAQ,not soluble
10,MGSDKIHHHHHHMEKFIESVANFIDEEDVKVLKAIGSDPIVLHSIKKIFDYPEKANKYLILLRDSPVAVYLVAKISERLSRYLEGEDEAKCFAVFLTALRELRECGDRRVLQNMFLLLKEAIERRLSDGKYEDAAKLVMEFQDFGFKSYVKKVLFFALEVSEEGDYRRAMRILELLPETDAVIDAKASVLLEWGRSLAMSNPEAGMKKIEESLRLKDTVEARLAMAEIHESMGNYEKAYFIYTSLRSLYPGIDRRIARMLMEWGEEIGDVEKLREAYNLAMGDRLLAEEIERRIKKLEAQRLSGS,not soluble
11,MAHHHHHHMCLDWKYNYMKTRLKVLENNEKDEEIERKLQNNLNIKSLGYVLKAIEILKRKEKMKRYSTFDRHLSYFKKNNINKPQYNEKKILEHRLWAIGCELIEVIGDGNCLFRSISRNLFHKQKYHMYVRKKCVEYMINYKEEYSIYFENNEFQQYIKNMSKNGYWGDELCIKATADAFDCIIYIITSTLENWHLKYESKNNNGMYKKCVFLAYSSPTHYDCFKLMQR,not soluble
12,MGSDKIHHHHHHMYPKNFWYVGAMKHEVGRQLLARTLLEQPVVFFRRNDGSVAALADRCSHRRVSLSLGRLIGDEVQCGYHGLTFAGDGSCTSIPGQSRVPPSACVRSYPVVERDGFVWIWPGDPALANETLVPDYAEICSSGRYVGRPAEALLVEAPFLFNIENVLDLSHVTYAHPETVGTPEVALTRPTVDVSEAKVQVTRNWDKASTGPSFKNLFGWDFVKNSQRISFWPGANMLLEIEVEPVGNNDPTQIKRLRVPGPCTPSTSTTHFKFSALYRDFLPDNEALTVGMFEQFRKTVMEDKVLMENQQRNWALDGVEVIRRIEPSSSGGMMDIAVDHAPLAARRWLQRLAMAERSAPEIKAPGVLQG,not soluble
13,MKSVGLITEYNPFHNGHQYHINQSKKLTNADVTIAIMSGNFVMRGEPAIYNKFTRAKMALSTADLVIELPATASLSSGDHFAELAVKVADYMSVDTIAFGSENNDIKTLKQLAHSINEIEQSESFSQKVKEGKSYPRIISELLEHHEALASPNNILGISYLKAIAKNAKNINAISIKRENAQHHDSLIQHHQFASGTSIRTSIISQDDHWHHVVPKDIQHLYVTPHITLNQIFPYLKYQIIAMTTDSLKNIYTVTEGFENRLKSNIYEATDFHHFVKLLKTKRYTYTHIQRLLMNVLLNIKPTDVTSNIHAVKVLAMNDRGRQYLKHLKTAFPERQYITNINKSNAHYFTNEIKATHIYNAISGQQQTDFNTPVIQQYR,not soluble
14,MGSDKIHHHHHHMARYSKKMKLLINTPSLKFLGGGVANHYIGLRTFWTENVKYNVVGRRGGKSGSGKYWLPWDIFKFIFRLLTFRPNIILLNPSLGDKALKRDFIYLNICRFFRKKTSVFIHGFNFEYAKNADWKWISTNLNKALCIFVLSQEFKNELIRRGVKSDIHLTSTKVPDYFISGFDLSMRQGKAKNIMYSGRIEKAKGVYETVDTFSILKSQYKDLTLTFVGDGSELPKLKQYVENKKIKDVRFTGRLCGEDFKKEYINADMYLFLSYTEGMPTVVLEAMIFGLPIFTRKVGGLIDFFENGKMGYISSSLDPVVFAEAMKPYIESSAKMKSVSLYNSEYARTHFIASVVARKFENTLNYEYFKNQEHREH,not soluble
15,MSLEKESEWKGPFYFILGADPQFGLIKAWSTGDCDNGGDEWEQEIRLTEQAVQAINELNPKPKFFVLCGDLIHAMPGKPWRTEQTEDLKRVLRAVDRAIPLVLVSGNHDIGNTPTAETVEEFCRTWGDDYFSFWVGGVLFLVLNSQFYENPSKCPSLKQAQDQWLDEQLSIARQRHCQHAIVFQHIPLFLESIDEDDDYYFNLSKSTRKELADKFIHAGVRVVFSGHYHRNAGGTYQNLDMVVSSAIGCQLGRDPHGLRVVVVTAEKIVHRYYSLDELSEKGIEDDLMDLEGHHHHHH,not soluble
16,MQKDYQKLIVYLCDFLEKEVQKRGFKKVVYGLSGGLDSAVVGVLCQKVFKENAHALLMPSSVSMPENKTDALNLCEKFSIPYTEYSIAPYDAIFSSHFKDASLTRKGNFCARLRMAFLYDYSLKSDSLVIGTSNKSERMLGYGTLFGDLACAINPIGELFKTEVYELARRLNIPKKILNKPPSADLFVGQSDEKDLGYPYSVIDPLLKDIEALFQTKPIDTETLAQLGYDEILVKNITSRIQKNAFKLELPAIAKRFNPELEHHHHHH,soluble
17,CLAEGTRIFDPVTGTTHRIEDVVDGRKPIHVVAAAKDGTLHARPVVSWFDQGTRDVIGLRIAGGAILWATPDHKVLTEYGWRAAGELRKGDRVAQPRRFDGFGDSAPIPARVQALADALDDKFLHDMLAEELRYSVIREVLPTRRARTFDLEVEELHTLVAEGVVVHN,soluble
18,GVKCEPIEELTISVPEEYSSKMIDMVTRRKGDLVSMETQGDRVNIEFDMPSRGIIGLRTNVLTASAGEAIMAHRFKCYQPYKGEIERRSNGSMIAMESGTAFAYAIDKLQDRGKFFIYPQDEVYAGQV,not soluble
19,ELAAIQNLGGMDVLCTDKTGTITEDRVVLVQHLNPLGDLSDEVLNLAYLNSSYQTGWKNLMDIAVINFYEEHQWKTPFKNVTKIDEIPFDFSRRRLTVVVNADDHQLMITKGAVEEMEEVCTHAQINGEIVPLSTAVREELRRVNVQMNKQGMRVLAVAVKKDVHKEAVYSVEDEKEMTLIGFMGFLDP,not soluble
20,MGSDKIHHHHHHMNNTRSAYEKIIKDLQGVGFSDYEAKTYIALLLTPNATAYEISKEAGIPKANCYSVLEALRKNGAVQAVSENPVKYVAVDPNRYFNQMVELTQLRCEDLKESLKNIGHLPQEDLVWSLNDAAAVGLHIEKMIGSARDTIRIKAADTTLEPHLPSLKKAARRGVKVLIILFGEDVRPFELGKNCKVYLHEGNGIRVGISHKLITVTRDYKEALVAEVGRDAYGSYTENKPIVTLADSLLRHEIYFAEIFSCFGDEIQEKFGPALVKLRESYLPADQADALKVFLETADPARLAGKATAA,not soluble
